According to the supplement of paper PMC7877785:
± gives the uncertainty stated by the source.

Assay: self-splicing fitness, log relative to wild type (ln ratio); higher = more splicing; Tetrahymena group I intron in knt gene, E. coli kanamycin selection, DiMSum; sequences stand for … in CUCUCU…GGAGGGAAAAGUUAUCAGGCAUGCACCUGGUAGCUAGUCUUUAAACCAAUAGAUUGCAUCGGUUUAAAAGGCAAGACCGUCAAAUUGCGGGAAAGGGGUCAACAGCCGUUCAGUACCAAGUCUCAGGGGAAACUUUGAGAUGGCCUUGCAAAGGGUAUGGUAAUAAGCUGACGGACAUGGUCCUAACCACGCAGCCAAGUCCUAAGUCAACAGAUCUUCUGUUGAUAUGGAUGCAGUUCACAGACUAAAUGUCGGUCGGGGAAGAUGUAUUCUUCUCAUAAGAUAUAGUCGGACCUCUCCUUAAUGGGAGCUAGCGGAUGAAGUGAUGCAACACUGGAGCCGCUGGGAACUAAUUUGUAUGCGAAAGUAUAUUGAUUAGUUUUGGAGUACUCGUGGUCG
Method in brief: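 A randomised library covering all eight P1ex-region intron nucleotides was built with the intron in the knt kanamycin-resistance gene on pET-22b(+) and held in E. coli BL21(DE3). Cells were grown overnight at 37°C or 30°C on LB agar, with or without 25 μg/mL kanamycin, plus 100 μg/mL carbenicillin, 50 μM IPTG and 0.2% rhamnose, and pooled colonies were amplicon-sequenced on an Illumina HiSeq 2500. DiMSum fitness is the error-weighted combination of wild-type-normalised replicate fold changes, kanamycin versus none.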

Row | Sequence | self-splicing fitness (ln) (30 °C) | self-splicing fitness (ln) (37 °C)
1 | CCCUAGCAAUAUUACGAACG | -3 ± 0.21 | -2.59 ± 0.29
2 | CCCUAGCAAUAUUACGAAUG | -4.25 ± 0.46 | 
3 | CCCUAGCAAUAUUACGAGAG | -3.79 ± 0.3 | -2.5 ± 0.23
4 | CCCUAGCAAUAUUACGAGCU | -4.02 ± 0.24 | -1.87 ± 0.2
5 | CCCUAGCAAUAUUACGAGGG | -4.35 ± 0.46 | -2.09 ± 0.23
6 | CCCUAGCAAUAUUACGAGUC | -3.63 ± 0.21 | -2.28 ± 0.27
7 | CCCUAGCAAUAUUACGAUAA | -4.04 ± 0.22 | -2.48 ± 0.22
8 | CCCUAGCAAUAUUACGCGAG | -3.61 ± 0.19 | -3.25 ± 0.21
9 | CCCUAGCAAUAUUACGCGCG | -3.46 ± 0.16 | -3.35 ± 0.27
10 | CCCUAGCAAUAUUACGCUAA | -4.17 ± 0.3 | -2.55 ± 0.22
11 | CCCUAGCAAUAUUACGGCAA | -3.66 ± 0.22 | -3.15 ± 0.18
12 | CCCUAGCAAUAUUACGGCAG | -3.47 ± 0.22 | -2.75 ± 0.22
13 | CCCUAGCAAUAUUACGGCGA | -2.43 ± 0.13 | -2.19 ± 0.17
14 | CCCUAGCAAUAUUACGGCGC | -3.55 ± 0.21 | -3.28 ± 0.24
15 | CCCUAGCAAUAUUACGGGAU | -3.82 ± 0.21 | -3.12 ± 0.26
16 | CCCUAGCAAUAUUACGGUAA | -2.69 ± 0.21 | -3.02 ± 0.32
17 | CCCUAGCAAUAUUACGGUCU | -3.61 ± 0.21 | -1.72 ± 0.17
18 | CCCUAGCAAUAUUACGUACA | -2.75 ± 0.19 | -2.87 ± 0.22
19 | CCCUAGCAAUAUUACGUGUC | -3.29 ± 0.13 | -2.97 ± 0.19
20 | CCCUAGCAAUAUUACGUUGU | -3.84 ± 0.16 | -3.27 ± 0.16
21 | CCGAAGCAAUAUUACGAACA |  | -2.58 ± 0.41
22 | CCGAAGCAAUAUUACGAACG | -0.139 ± 0.077 | 0.554 ± 0.1
23 | CCGAAGCAAUAUUACGAAUC | -4.12 ± 0.32 | -3.04 ± 0.48
24 | CCGAAGCAAUAUUACGAGAU | -3.31 ± 0.17 | -2.43 ± 0.21
25 | CCGAAGCAAUAUUACGCCUG | -1.04 ± 0.094 | -1.17 ± 0.11

Row | Sequence | self-splicing fitness (ln) (30 °C) | self-splicing fitness (ln) (37 °C)
26 | CCGAAGCAAUAUUACGCGAA |  | -2.24 ± 0.2
27 | CCGAAGCAAUAUUACGCUCG | -1.57 ± 0.18 | -1.53 ± 0.21
28 | CCGAAGCAAUAUUACGGCCC | -3.55 ± 0.3 | -1.71 ± 0.38
29 | CCGAAGCAAUAUUACGGCGC | -4.16 ± 0.36 | -2.63 ± 0.49
30 | CCGAAGCAAUAUUACGGCUU | -3.9 ± 0.29 | -3.29 ± 0.32
31 | CCGAAGCAAUAUUACGGGAC | -4.02 ± 0.26 | -3.3 ± 0.26
32 | CCGAAGCAAUAUUACGGGGA | -3.16 ± 0.19 | -2.96 ± 0.19
33 | CCGAAGCAAUAUUACGGGGU | -4.25 ± 0.22 | -2.6 ± 0.21
34 | CCGAAGCAAUAUUACGGGUA | -4.26 ± 0.3 | -2.35 ± 0.22
35 | CCGAAGCAAUAUUACGGUAC |  | -1.85 ± 0.25
36 | CCGAAGCAAUAUUACGGUCG | -0.661 ± 0.11 | -0.369 ± 0.14
37 | CCGAAGCAAUAUUACGUAAG | -0.257 ± 0.055 | 0.2 ± 0.073
38 | CCGAAGCAAUAUUACGUCGA | -2.38 ± 0.17 | -1.74 ± 0.12
39 | CCGAAGCAAUAUUACGUUGA | -3.76 ± 0.15 | -3.45 ± 0.17
40 | CCGCAGCAAUAUUACGAAGA | -2.83 ± 0.26 | -2.57 ± 0.24
41 | CCGCAGCAAUAUUACGACGG | -2.83 ± 0.11 | -2.64 ± 0.19
42 | CCGCAGCAAUAUUACGACUA | -3.8 ± 0.34 | -3.46 ± 0.29
43 | CCGCAGCAAUAUUACGACUC | -3.06 ± 0.23 | -2.02 ± 0.26
44 | CCGCAGCAAUAUUACGAUCA | -2.72 ± 0.22 | -1.85 ± 0.27
45 | CCGCAGCAAUAUUACGAUUC | -3.56 ± 0.19 | -3.03 ± 0.21
46 | CCGCAGCAAUAUUACGCACC | -3.46 ± 0.23 | -2.05 ± 0.24
47 | CCGCAGCAAUAUUACGCCGG | -3.15 ± 0.38 | -3 ± 0.43
48 | CCGCAGCAAUAUUACGCGGU | -3.18 ± 0.16 | -2.5 ± 0.22
49 | CCGCAGCAAUAUUACGCUAA | -3.22 ± 0.22 | -2.55 ± 0.23
